Reference: patent US20080193450A1 (ISTITUTO SUPERIORE DI SANITA, published 2008)

B1: ADR4-3 (other)
chain: EVQLLESGGGLVQPGGSLRLSCAASGFTFAQYRMAWVRQAPGKGLEWVSQINAQGTQTGYADSVKGRFTISRDNSKNTLYLQMNSLRAEDTAVYYCAKWVGGARYTFDYWGQGTLVTVSS
B2: ADR4-10 (other)
chain: EVQLLESGGGLVQPGGSLRLSCAASGVSVSAYTMSWVRQAPGKGLEWVSAILKKNGSTYYADSVKGRFTISRDNSKNTLYLQMNSLRAEDTAVYYCAGRPSVTFGGPGKRYDYHFQYWGQGTLVTVSS
B3: ADR4-13 (other)
chain: EVQLLESGGGLVQPGGSLRLSCAASGFSISYKNMAWVRQAPGKGLEWVSAIKAANGSTYYADSVKGRFTISRDNSKNTLYLQMNSLRAEDTAVYYCATGSQKKRTYTFDFWGQGTLVTVSS
B4: ADR4-9 (other)
chain: EVQLLESGGGLVQPGGSLRLSCAASGVRLSHQVMGWVRQAPGKGLEWVSAIRSSDGSTYYADSVKGRFTISRDNSKNTLYLQMNSLRAEDTAVYYCAGWRSAKSQMHYWGQGTLVTVSS
B5: ADR4-6 (other)
chain: EVQLLESGGGLVQPGGSLRLSCAASGFRVSNYDLTWVRQAPGKGLEWVSTISATNGSTYYADSVKGRFTISRDNSKNTLYLQMNSLRAEDTAVYYCAAVTWWLLRHNDNLGFWGQGTLVTVSS
B6: ADR4-8 (other)
chain: EVQLLESGGGLVQPGGSLRLSCAASGFSLSYKVMGWVRQAPGKGLEWVSAINRENGSTYYADSVKGRFTISRDNSKNTLYLQMNSLRAEDTAVYYCAGFARRGAPHSASVEFWGQGTLVTVSS
B7: ADR4-12 (other)
chain: EVQLLESGGGLVQPGGSLRLSCAASGDTVSSKAMAWVRQAPGKGLEWVSGIFIPNGSTYYADSVKGRFTISRDNSKNTLYLQMNSLRAEDTAVYYCAAKQRAVLSRWGSSTEFGSWGQGTLVTVSS
B8: ADR4-5 (other)
chain: EVQLLESGGGLVQPGGSLRLSCAASGDRISSEFMGWVRQAPGKGLEWVSAIYKPNGSTYYADSVKGRFTISRDNSKNTLYLQMNSLRAEDTAVYYCARGRARRTESTYQLRYWGQGTLVTVSS
B9: ADR4-7 (other)
chain: EVQLLESGGGLVQPGGSLRLSCAASGYSVTYQNMAWVRQAPGKGLEWVSTITVPNGSTYYADSVKGRFTISRDNSKNTLYLQMNSLRAEDTAVYYCAGLGEVLRDGNANVQFWGQGTLVTVSS
B10: ADR4-11 (other)
chain: EVQLLESGGGLVQPGGSLRLSCAASGVIFTDQTMGWVRQAPGKGLEWVSAIKTRDGSTYYADSVKGRFTISRDNSKNTLYLQMNSLRAEDTAVYYCARFLRPNASRGSAREAQIHSWGQGTLVTVSS
B11: ADR4-4 (other)
chain: EVQLLESGGGLVQPGGSLRLSCAASGFTFLDYQMSWVRQAPGKGLEWVSGISRSGNKTKYADSVKGRFTISRDNSKNTLYLQMNSLRAEDTAVYYCAKWAGLNRHDFDYWGQGTLVTVSS

These molecules were tested against native, highly purified SAP2 preparation (Candida albicans, UniProt P0CS83 57-398) (assay: cell-based or functional assay).
Sequence of native, highly purified SAP2 preparation (P0CS83 57-398 limits assumed): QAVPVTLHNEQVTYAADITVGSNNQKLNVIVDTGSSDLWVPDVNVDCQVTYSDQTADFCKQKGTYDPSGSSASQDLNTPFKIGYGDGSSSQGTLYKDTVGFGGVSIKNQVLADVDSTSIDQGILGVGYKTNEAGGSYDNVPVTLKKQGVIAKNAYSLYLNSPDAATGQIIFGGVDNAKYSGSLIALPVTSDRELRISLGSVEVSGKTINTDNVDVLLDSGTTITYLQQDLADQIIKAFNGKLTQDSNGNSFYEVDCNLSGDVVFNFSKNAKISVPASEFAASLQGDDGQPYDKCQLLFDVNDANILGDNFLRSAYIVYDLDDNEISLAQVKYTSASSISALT

Molecule | % Inhibition (BSA degradation, proteinase enzyme assay) [%] | ΔOD/ml/min (BSA degradation, proteinase enzyme assay)
pepstatin A (peptide) | 100 | 0.36 ΔOD/ml/min
B1 | 40 | 0.66 ΔOD/ml/min
B2 | 13 | 0.83 ΔOD/ml/min
B3 | 82 | 0.46 ΔOD/ml/min
B4 | 5 | 0.93 ΔOD/ml/min
B5 | 78 | 0.5 ΔOD/ml/min
B6 | 0 | 1 ΔOD/ml/min
B7 | 60 | 0.6 ΔOD/ml/min
B8 | 0 | 1 ΔOD/ml/min
B9 | 61 | 0.7 ΔOD/ml/min
B10 | 29 | 0.8 ΔOD/ml/min
B11 | 32 | 0.76 ΔOD/ml/min
